# Assay results: patent US20250304927A1, “PRO-PEPTIDE VARIANTS FOR MODULATING ACTIVITY OF TRANSGLUTAMINASES” (CURIE CO. INC., priority 2022, published 2025)
# Where no end group is shown, it is not given here.
# T1: evolved variant of mature Streptomyces mobaraensis transglutaminase, including a two amino acid linker and … (Streptomyces mobaraensis, UniProt P81453 79-407)
# T1 chain: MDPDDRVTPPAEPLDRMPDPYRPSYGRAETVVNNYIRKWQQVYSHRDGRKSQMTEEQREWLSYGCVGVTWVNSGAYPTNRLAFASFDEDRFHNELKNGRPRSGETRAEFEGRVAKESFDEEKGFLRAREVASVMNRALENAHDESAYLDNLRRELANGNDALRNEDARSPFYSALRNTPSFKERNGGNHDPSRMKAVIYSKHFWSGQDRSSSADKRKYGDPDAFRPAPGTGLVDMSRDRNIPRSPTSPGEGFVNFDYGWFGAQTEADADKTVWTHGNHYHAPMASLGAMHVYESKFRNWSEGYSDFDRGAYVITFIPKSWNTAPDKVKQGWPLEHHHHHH
# Columns and labels:
# [1] = target: T2, mature evolved transglutaminase (SEQ ID NO: 5) (Streptomyces mobaraensis, UniProt P81453, G359A/K167H/K227R/K228R/N358M/Q126S/Q150A/Q200L); assay: transglutaminase thermostability: activity after being held at 37-50 °C; format: biochemical; set-up: key: The symbol, —, represents not determined, neutral, or reduced performance; conditions: relative to wild-type pro-peptide; held at 37° C.-50° C. for 30 minutes, diluted 10-fold to 100-fold
# T2 construct: hexa-His tag with two amino acid linker (C); made in house; host or cells: E. coli BL21 (DE3)
# Description: The terms “stability” and “thermostability” are used interchangeably to refer to increased residual activity of mature transglutaminase after incubation at elevated temperatures. In some embodiments, a pro-peptide variant increases the stability of a mature transglutaminase compared to the wild type pro-peptide. Measurement of stability is depicted in Example 4.
# It is believed that these pro-peptide variants confer thermal stability to mature transglutaminase.
# [2] = target: T3, thermostable mature transglutaminase variant (SEQ ID NO: 3) (Streptomyces mobaraensis, UniProt P81453); format: biochemical; conditions: increase in transglutaminase activity relative to wild-type pro-peptide, casein assay; Method A
# T3 construct: made in house; host or cells: E. coli (lysate)
# Description: Method A. A bicistronic expression vector encoding the wild-type pro-domain of transglutaminase (SEQ ID NO: 2) and a thermostable mature transglutaminase variant (SEQ ID NO: 3) as separate polypeptides was cloned as described in PCT/US20/49226 (WO2021/178001 A1). The vector was used as a template for synthesis of a random mutagenesis library targeting the pro-domain coding sequence to create pro-domain peptide variants.
# Method A. Plasmid libraries containing mature transglutaminase and variant pro-domain peptides were plated on Luria-Bertani (LB) agar plates containing 50 μg/mL of kanamycin. After incubation for at least 16 hours at 37° C., colonies were picked and inoculated into 1 mL of LB broth with 50 μg/mL kanamycin in one well of a 96 deep well culture plate. The plate was covered with a breathable seal and incubated overnight at 37° C. with 400 rpm of shaking. 10 μL of the seed culture was used to inoculate 1 mL of media in a 96 deep well culture plate for expression. The expression plate was allowed to grow for 6-8 hours at 30° C. Expression was then induced by adding isopropyl beta-D-1-thiogalactopyranoside (IPTG) to a final concentration of 1 mM and the temperature was reduced to 20° C. while growth continued for an additional 15 hours. Cells were harvested by centrifugation at 4000 rcf for 30 minutes and pellets were frozen at −80° C.
# A secondary screen was performed to determine initial rate of transglutaminase in the presence of the pro-peptide variants using transglutaminase-catalyzed labeling of casein with dansylcadaverine (e.g., a commercially available kit such as the Transglutaminase Fluorogenic Activity Assay Kit, T036, Zedira, Germany). Transglutaminase activity was monitored by measuring the fluorescence (excitation wavelength 332 nm; emission wavelength 500 nm) using a BioTek Synergy H1 microplate reader. Transglutaminase-catalyzed covalent coupling (crosslinking) of monodansylcadaverine with N,N-dimethylcasein produces a product that causes a shift in intensity and wavelength of fluorescence of the dansyl group now linked to the casein. The relative transglutaminase activity is shown by increase of fluorescence intensity over time. The data were normalized for transglutaminase expression levels in E. coli lysate as described above. Pro-domain variants were identified based on their ability to alter the activity of the mature transglutaminase enzyme. […]
# It is believed that these pro-peptide variants have reduced binding affinity with mature mTgase.
# [3] = target: T1, evolved variant of mature Streptomyces …; assay: cell-based or functional assay
# T3 sequence (P81453 other isoform, or with tags, fused parts or gaps): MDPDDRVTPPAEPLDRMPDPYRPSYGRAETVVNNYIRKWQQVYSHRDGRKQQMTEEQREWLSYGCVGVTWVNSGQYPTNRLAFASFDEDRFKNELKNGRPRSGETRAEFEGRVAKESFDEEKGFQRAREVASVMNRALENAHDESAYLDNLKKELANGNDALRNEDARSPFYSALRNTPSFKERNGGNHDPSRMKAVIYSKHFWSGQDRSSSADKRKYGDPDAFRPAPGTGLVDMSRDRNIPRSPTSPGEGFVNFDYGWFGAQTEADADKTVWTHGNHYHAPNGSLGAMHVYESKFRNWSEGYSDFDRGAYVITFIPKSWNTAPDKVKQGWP
Molecule,Reduction in binding affinity of inhibitory peptide relative to WT [2] [fold],Inhibition [3] [fold],other results
"E7S, D21T, D22Q: combination variant of pro-peptide SEQ ID NO: 2, Method B (MDNGAGSETKSYAETYRLTATQVANINALNESAPAASSAGPSFRAP)",,,Thermostability [1]: —
"D2I, E7S, D22Q: combination variant of pro-peptide SEQ ID NO: 2, Method B (MINGAGSETKSYAETYRLTADQVANINALNESAPAASSAGPSFRAP)",,,Thermostability [1]: —
"D2S, L18V, D22Q: combination variant of pro-peptide SEQ ID NO: 2, Method B (MSNGAGEETKSYAETYRVTADQVANINALNESAPAASSAGPSFRAP)",,,Thermostability [1]: —
MDNGAGEETCSYAETYRLTADDVANINALNESAPAASSAGPSFRAP [Variant K10C],>1.2,,
MDNGAGEETKSSAETYRLTADDVANINALNESAPAASSAGPSFRAP [Variant Y12S],>5,,
MDNGAGEETKKYAETYRLTADDVANINALNESAPAASSAGPSFRAP [Variant S11K],>1.2,,
MDNGAGEETKYYAETYRLTADDVANINALNESAPAASSAGPSFRAP [Variant S11Y],>1.2,,
MDNGAGEETKSYAETYRLTADDVANINALNESAPAASPAGPSFRAP [Variant S38P],>1.2,,
MDNGAGEETKSGAETYRLTADDVANINALNESAPAASSAGPSFRAP [Variant Y12G],>1.2,,
MDNGAGEETKGYAETYRLTADDVANINALNESAPAASSAGPSFRAP [Variant S11G],>5,,
MDNGAGEETKSYAETYRLTADDVANINALNESAPAASYAGPSFRAP [Variant S38Y],>1.2,,
MDNGAGEETGSYAETYRLTADDVANINALNESAPAASSAGPSFRAP [Variant K10G],>1.2,,
MDNGAGEETKSYAETYRLTADRVANINALNESAPAASSAGPSFRAP [Variant D22R],>1.2,,
MDNGAGEETKSYAETYRLTADQVANINALNESAPAASSAGPSFRAP [Variant D22Q],>1.2,,
MDNGAGEETKSLAETYRLTADDVANINALNESAPAASSAGPSFRAP [Variant Y12L],>1.2,,
MDNGAGEETKSYAVTYRLTADDVANINALNESAPAASSAGPSFRAP [Variant E14V],>1.2,,
MDNGAGEETKSYAETYRLTADGVANINALNESAPAASSAGPSFRAP [Variant D22G],>1.2,,
MDNGAGEETKSNAETYRLTADDVANINALNESAPAASSAGPSFRAP [Variant Y12N],>1.2,,
MDNGAGEETKSYAETYRETADDVANINALNESAPAASSAGPSFRAP [Variant L18E],>1.2,,
"MSNGAGSETKSYAETYRLTADQVANINALNESAPAASSAGPSFRAP [pro-peptide variant D2S, E7S, D22Q (Method B)]",,> 2,
"MSNGAGEETKSYAETYRVTADQVANINALNESAPAASSAGPSFRAP [pro-peptide variant D2S, L18V, D22Q (Method B)]",,> 2,

Molecule,Reduction in binding affinity of inhibitory peptide relative to WT [2] [fold],Inhibition [3] [fold],other results
"MDNGAGEETKSYAETYRVTATDVANINALNESAPAASSAGPSFRAP [pro-peptide variant L18V, D21T (Method B)]",,> 2,
"MSNGAGEETKSYAETYRLTADQVANINALNESAPAASSAGPSFRAP [pro-peptide variant D2S, D22Q (Method B)]",,> 2,
"MDNGAGSETKSYAETYRLTATDVANINALNESAPAASSAGPSFRAP [pro-peptide variant E7S, D21T (Method B)]",,> 1.2,
"MINGAGSETKSYAETYRLTADQVANINALNESAPAASSAGPSFRAP [pro-peptide variant D2I, E7S, D22Q (Method B)]",,> 2,
"MINGAGSETKSYAETYRLTAIDVANINALNESAPAASSAGPSFRAP [pro-peptide variant D2I, E7S, D21I (Method B)]",,> 1.2,
"MDNGAGSETKSYAETYRVTARDVANINALNESAPAASSAGPSFRAP [pro-peptide variant E7S, L18V, D21R (Method B)]",,> 2,
"MSNGAGSETKSYAETYRLTATQVANINALNESAPAASSAGPSFRAP [pro-peptide variant D2S, E7S, D21T, D22Q (Method B)]",,> 2,
MFNGAGEETKSYAETYRLTADDVANINALNESAPAASSAGPSFRAP [pro-peptide variant D2F (Method B)],,> 1.2,
"MDNGAGSETKSYAETYRLTATQVANINALNESAPAASSAGPSFRAP [pro-peptide variant E7S, D21T, D22Q (Method B)]",,> 1.2,
"MDNGAGSETKSYAETYRVTAIDVANINALNESAPAASSAGPSFRAP [pro-peptide variant E7S, L18V, D21I (Method B)]",,> 2,
"MSNGAGSETKSYAETYRLTADDVANINALNESAPAASSAGPSFRAP [pro-peptide variant D2S, E7S (Method B)]",,> 2,
"MDNGAGSETKSYAETYRLTARDVANINALNESAPAASSAGPSFRAP [pro-peptide variant E7S, D21R (Method B)]",,> 1.2,
"MDNGAGEETKSYAETYRLTATQVANINALNESAPAASSAGPSFRAP [pro-peptide variant D21T, D22Q (Method B)]",,> 1.2,
"MSNGAGEETKSYAETYRLTATQVANINALNESAPAASSAGPSFRAP [pro-peptide variant D2S, D21T, D22Q (Method B)]",,> 1.2,
"MINGAGEETKSYAETYRLTADQVANINALNESAPAASSAGPSFRAP [pro-peptide variant D2I, D22Q (Method B)]",,> 1.2,
"MINGAGEETKSYAETYRLTATQVANINALNESAPAASSAGPSFRAP [pro-peptide variant D2I, D21T, D22Q (Method B)]",,> 1.2,
"MDNGAGSETKSYAETYRLTADQVANINALNESAPAASSAGPSFRAP [pro-peptide variant E7S, D22Q (Method B)]",,> 1.2,
MDNGAGEETKSYAETYRVTADDVANINALNESAPAASSAGPSFRAP [pro-peptide variant L18V (Method B)],,> 2,
"MSNGAGSETKSYAETYRLTAIDVANINALNESAPAASSAGPSFRAP [pro-peptide variant D2S, E7S, D21I (Method B)]",,> 1.2,
"MINGAGSETKSYAETYRVTARDVANINALNESAPAASSAGPSFRAP [pro-peptide variant D2I, E7S, L18V, D21R (Method B)]",,> 2,
"MDNGAGEETKSYAETYRVTATQVANINALNESAPAASSAGPSFRAP [pro-peptide variant L18V, D21T, D22Q (Method B)]",,> 2,
